Laboratory results from patent publication KR20240094169A (dated 2024).

B1: 항-BCMA sdAb No.19 (VHH)
VHH: KLEESGGGSVQTGGSLRLTCAASGIIFSDDAIGWFRQAPGKERELVSLIDSKSSTYYADSVKGRFTISRDNAKNTVDLQMNSLKPEDTAIYYCNDHKRRQAMEYWGQGTQVTVSS
notes: Camel-derived single-domain antibody from a phage library; also called anti-BCMA sdAb No.19; 항-BCMA No.19
B2: 항-BCMA sdAb No.11 (VHH)
VHH: KLEESGGGSVQTGGSLRLTCAASGSISRLDNMGWFRQAPGKERELVAAINSKSNKTNYADSVKGRFTISRDNAKNTVDLQMNSLKPEDTAIYYCANWSFDKHRAYWGQGTQVTVSS
notes: Camel-derived single-domain antibody from a phage library; also called anti-BCMA sdAb No.11; 항-BCMA No.11
B3: 항-BCMA sdAb No.7 (VHH)
VHH: KLEESGGGSVQTGGSLRLTCAASGSIFSSGFMAWFRQAPGKEREFVSGISWRGDSTGYADSVKGRFTISRDNAKNTVDLQMNSLKPEDTAIYYCAARGTDTAYWGQGTQVTVSS
notes: Camel-derived single-domain antibody from a phage library; also called anti-BCMA sdAb No.7; 항-BCMA No.7

Biological target: T1, BCMA (B-cell maturation antigen) expressed on multiple myeloma H929 cells (UniProt Q02223 1-184, limits assumed)
T1 construct: whole, on cells; also called TNFRSF17; CD269
T1 sequence (looked up): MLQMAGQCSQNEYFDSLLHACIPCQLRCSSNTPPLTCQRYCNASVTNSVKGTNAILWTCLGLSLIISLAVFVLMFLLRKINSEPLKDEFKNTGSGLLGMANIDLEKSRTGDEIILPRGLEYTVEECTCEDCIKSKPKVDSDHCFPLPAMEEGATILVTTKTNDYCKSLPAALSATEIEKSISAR
Assay: flow cytometry on H929 cells, 1 ㎍ sdAb, PE-conjugated secondary antibody

**Q.** Does B1 bind?
**A.** binds

**Q.** Does B2 bind?
**A.** binds

**Q.** Does B3 bind?
**A.** binds
